{"source": "paper PMC2191977", "about": "(The Journal of Experimental Medicine, 1995)", "assay_in_all_cases": "flow cytometry on cells", "key": {"B7 QD/LE (Q194L, D195E)": {"target": "T1, B7 QD/LE (Q194L, D195E) (mouse, UniProt Q00609 38-306, Q194D195>LE)", "T1 sequence (looked up)": "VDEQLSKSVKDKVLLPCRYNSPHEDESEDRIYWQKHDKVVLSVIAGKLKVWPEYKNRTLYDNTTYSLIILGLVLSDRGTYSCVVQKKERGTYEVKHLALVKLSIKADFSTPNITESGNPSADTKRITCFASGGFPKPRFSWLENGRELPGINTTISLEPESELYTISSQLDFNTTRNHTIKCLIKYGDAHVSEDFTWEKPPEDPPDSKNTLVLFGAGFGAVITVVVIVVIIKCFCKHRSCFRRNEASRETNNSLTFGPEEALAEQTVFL"}, "[1]": {"target": "T2, B7 QDP/LEH (Q194L, D195E, P196H) (mouse, UniProt Q00609 38-306, Q194D195P196>LEH)", "T2 sequence (looked up)": "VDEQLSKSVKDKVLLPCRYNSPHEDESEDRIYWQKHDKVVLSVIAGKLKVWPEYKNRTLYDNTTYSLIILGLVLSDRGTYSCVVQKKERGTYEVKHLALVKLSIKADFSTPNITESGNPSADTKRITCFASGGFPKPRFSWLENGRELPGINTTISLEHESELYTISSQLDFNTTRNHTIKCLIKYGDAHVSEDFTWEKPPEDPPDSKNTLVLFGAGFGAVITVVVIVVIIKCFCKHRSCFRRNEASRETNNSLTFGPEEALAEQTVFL"}, "B7 Y201A": {"target": "T3, B7 Y201A (mouse, UniProt Q00609 38-306, Y201A)", "T3 sequence (looked up)": "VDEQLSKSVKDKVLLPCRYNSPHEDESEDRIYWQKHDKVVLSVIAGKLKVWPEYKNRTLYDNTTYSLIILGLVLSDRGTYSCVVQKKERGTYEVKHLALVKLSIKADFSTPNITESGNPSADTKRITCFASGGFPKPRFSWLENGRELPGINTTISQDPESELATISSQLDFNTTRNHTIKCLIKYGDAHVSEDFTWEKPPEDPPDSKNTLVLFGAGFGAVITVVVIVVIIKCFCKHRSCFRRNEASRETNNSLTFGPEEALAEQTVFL"}, "murine B7 (wild type)": {"target": "T4, murine B7 (wild type) (mouse, UniProt Q00609 38-306)", "T4 sequence (looked up)": "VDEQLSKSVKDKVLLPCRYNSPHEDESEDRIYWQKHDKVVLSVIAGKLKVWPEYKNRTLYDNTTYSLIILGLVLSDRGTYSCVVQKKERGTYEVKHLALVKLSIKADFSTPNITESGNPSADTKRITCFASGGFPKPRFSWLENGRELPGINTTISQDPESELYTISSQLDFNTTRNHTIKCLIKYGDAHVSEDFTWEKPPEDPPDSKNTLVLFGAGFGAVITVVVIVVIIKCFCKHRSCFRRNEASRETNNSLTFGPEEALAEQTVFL"}, "B7 K173E": {"target": "T5, B7 K173E (mouse, UniProt Q00609 38-306, K173E)", "T5 sequence (looked up)": "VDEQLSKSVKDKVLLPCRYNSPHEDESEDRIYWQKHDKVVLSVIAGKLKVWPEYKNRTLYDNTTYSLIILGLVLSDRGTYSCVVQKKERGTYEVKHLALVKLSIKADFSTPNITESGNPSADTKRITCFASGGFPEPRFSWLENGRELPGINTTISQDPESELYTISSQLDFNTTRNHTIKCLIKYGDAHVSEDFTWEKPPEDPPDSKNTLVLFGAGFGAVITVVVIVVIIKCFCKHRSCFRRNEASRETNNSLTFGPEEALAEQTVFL"}, "B7 R175S": {"target": "T6, B7 R175S (mouse, UniProt Q00609 38-306, R175>S (CGC>AGC))", "T6 sequence (looked up)": "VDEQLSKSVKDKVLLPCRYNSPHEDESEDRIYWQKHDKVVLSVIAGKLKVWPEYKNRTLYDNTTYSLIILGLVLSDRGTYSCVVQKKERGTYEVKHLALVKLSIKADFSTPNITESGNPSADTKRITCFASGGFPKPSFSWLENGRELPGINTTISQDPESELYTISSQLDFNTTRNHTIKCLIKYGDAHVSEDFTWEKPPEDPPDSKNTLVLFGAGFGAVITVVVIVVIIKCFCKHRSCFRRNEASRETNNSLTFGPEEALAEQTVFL"}}}
{"binder": "CD28Ig (Fc fusion, mouse, UniProt P31041 20-150, looked up) NKILVKQSPLLVVDSNEVSLSCRYSYNLLAKEFRASLYKGVNSDVEVCVGNGNFTYQPQFRSNAEFNCDGDFDNETVTFRLWNLHVNHTDIYFCKIEFMYPPPYLDNERSNGTIIHIKEKHLCHTQSSPKL", "values": [{"measurement": "% wild-type B7 binding (normalised to anti-B7 mAb 10.16A.1)", "setting": "B7 QD/LE (Q194L, D195E)", "value": 11, "unit": "%"}, {"measurement": "MF (mean fluorescence, control subtracted)", "setting": "B7 QD/LE (Q194L, D195E)", "value": 3, "unit": "MF"}, {"measurement": "% wild-type B7 binding (normalised to anti-B7 mAb 10.16A.1)", "setting": "[1]", "value": 3, "unit": "%"}, {"measurement": "MF (mean fluorescence, control subtracted)", "setting": "[1]", "value": 1, "unit": "MF"}, {"measurement": "% wild-type B7 binding (normalised to anti-B7 mAb 10.16A.1)", "setting": "B7 Y201A", "value": 3, "unit": "%"}, {"measurement": "MF (mean fluorescence, control subtracted)", "setting": "B7 Y201A", "value": 1, "unit": "MF"}, {"measurement": "% wild-type B7 binding (normalised to anti-B7 mAb 10.16A.1)", "setting": "murine B7 (wild type)", "value": 100, "unit": "%"}, {"measurement": "% wild-type B7 binding (normalised to anti-B7 mAb 10.16A.1)", "setting": "B7 K173E", "value": 77, "unit": "%"}, {"measurement": "MF (mean fluorescence, control subtracted)", "setting": "B7 K173E", "value": 44, "unit": "MF"}, {"measurement": "% wild-type B7 binding (normalised to anti-B7 mAb 10.16A.1)", "setting": "B7 R175S", "value": 26, "unit": "%"}, {"measurement": "MF (mean fluorescence, control subtracted)", "setting": "B7 R175S", "value": 15, "unit": "MF"}]}
